Target: T1, FGFR4蛋白 (成纤维细胞生长因子受体4, recombinant protein antigen bought from 义翘神州 / Sino Biological) (human, UniProt P22455 22-369, limits assumed)
T1 construct: In the Western blot the protein was boiled and denatured; also called FGFR4蛋白抗原; fibroblast growth factor receptor 4
T1 sequence (looked up): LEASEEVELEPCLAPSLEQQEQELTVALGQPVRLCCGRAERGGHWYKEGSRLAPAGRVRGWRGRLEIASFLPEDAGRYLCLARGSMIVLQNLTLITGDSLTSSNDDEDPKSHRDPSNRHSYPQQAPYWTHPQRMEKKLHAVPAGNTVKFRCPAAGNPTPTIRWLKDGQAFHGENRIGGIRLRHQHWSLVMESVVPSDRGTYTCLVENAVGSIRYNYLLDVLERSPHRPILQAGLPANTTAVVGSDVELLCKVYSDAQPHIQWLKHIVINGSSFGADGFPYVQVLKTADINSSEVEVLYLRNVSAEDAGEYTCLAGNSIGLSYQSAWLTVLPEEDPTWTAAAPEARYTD
Assay: BLI (OCTET K2), FGFR4 protein 10 μg/ml loaded on AHC (Anti-hIgG Fc Capture) sensors, 6G12F5 in solution at 8.84-566.7 nM

Kd: < 1 pM
B1: 6G12F5抗体 (抗FGFR4的单克隆抗体6G12F5) (antibody, V domains shown)
VH: EVMLVESGGGLVKPGGSLKLSCAVSGFTFRNYAMSWVRQSPEKRLEWVAEISNGGRYIYYPDTVTGRFTISRDNAKNTLYLEMSSLRSEDTAMYYCVRGGEKTSGYVWFAYWGEGTLVTVG
VL: DIQMTQTPASLSASVEETVTITCRASENIYSYLAWYQQKQGRSPQLLLYNAKTLAEGVPSRFSGSGSGTQFSLKINSLQPEDFGIYYCQHFSGTPYTFGEGTKLEIT
notes: Mouse hybridoma monoclonal antibody (BALB/c), purified from ascites on Protein G and detected with anti-mouse IgG; also called FGFR4单克隆抗体; FGFR4抗体

Reference: CN111471109A (SHENZHEN INST OF ADV TECH CAS, dated 2020)
